# Assay results: the supplement of paper PMC11865577
# Assays:
# Test in all cases: pull-down binding Z-score (relative to library population); higher = stronger binding
# Settings in all cases: RNA library: Library-2
# [1] = tested on: TO-N3-2 (biotin conjugate)
# In short: (§1)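 An RNA library (1 μg) carrying a Cy5 or Cy3 end label was heat-folded in phosphate/NaCl/KCl buffer, then incubated for 60 min at 25 °C with streptavidin beads loaded with 100 pmol of biotin-conjugated small molecule. The beads were washed three times, and bound RNA was released in hot SDS and hybridised to a DNA barcode microarray for 20 h at 55.5 °C. Each binding score was derived by subtracting the signal from beads without compound, averaging the barcoded replicate probes after removing the highest and lowest, and expressing the result as a Z-score relative to the library mean and standard deviation.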
# TO-N3 (biotin conjugate) = tested on: TO-N3 (biotin conjugate)
# In short: as §1
# [2] = tested on: TO-3-N3-2 (biotin conjugate)
# In short: as §1
# [3] = tested on: TO-3-N3 (biotin conjugate)
# In short: as §1
Sequence,pull-down binding Z-score [1],pull-down binding Z-score (TO-N3 (biotin conjugate)),pull-down binding Z-score [2],pull-down binding Z-score [3]
GGCCCGAGUGAUGGGCU [IAV_invivo_NA_6_Motif_9+IAV_invivo_NA_6_Motif_9],0.201,-0.27,-0.29,-0.127
GCUUGAAGUGGAGC [IAV_invivo_NS1_NEP_8_Motif_14+IAV_invivo_NS1_NEP_8_Motif_14],0.386,-0.23,-0.23,-0.454
GUACAUACAGCUAAUAAAUGGGAUCUCAUUAUUAGUGAUAUGUAC,0.426,-0.621,-0.167,-0.823
GCUAAAUUGUUACAUAAACCUAUUGUUUGGCAUGUUAACAAUGCAACUAAUAAAGCCACGUAUAAACCAAAUACCUGGUGUAUACGUUGUCUUUGGAGC,-1.05,-1.4,-0.0887,-1.1
GUUCUUCUUCGUAAGAAC,-1.19,-0.728,-0.206,-0.358
UGGCCAUGGUACAUUUGGCUA,-0.59,0.286,-0.0742,0.537
GUGUAAAAGUGCCUUUUACAU,-0.872,-0.957,-0.646,-0.525
CUUUUGAAGAAG [SHAPE_invivo_SARS-CoV-2_Motif_195],-1.33,-1.16,-0.577,-0.686
GACGACUACUAGCGUGCCUUUGUAAGCACAAGCUGAUGAGUACGAACUUAUGUACUCAUUCGUU [SHAPE_invivo_SARS-CoV-2_Multi_65_ComplexLevel_1],0.764,0.417,0.0759,0.114
GGUUCAACUCUCCCUAGGAGGUCUGGAGCC [IAV_invivo_NP_5_Motif_11+IAV_invivo_NP_5_Motif_11],0.0598,-0.225,-0.309,-0.418
GCUUCCACAAGUGCUUUUGUGGAAACUGUGAAAGGUUUGGAUUAUAAAGCAUUCAAACAAAUUGUUGAAUCCUGUGGUAAUUUUAAAGUUACAAAAGGAAAAGC,-0.348,-0.508,-0.339,-0.475
UUAACGUGAGUCUUGUAAAACCUUCUUUUUACGUUUACUCUCGUGUUAA [DMSMaPseq_invitro_SARS-CoV-2_Motif_474],-1.02,-0.275,-0.0657,-0.223
GGAAGACCUUAAAUUCCCUCGAGGACAAGGCGUUCC,-0.19,-0.658,-0.381,-0.756
UGGGAUAUUGCCCG [IAV_invivo_PB2_1_Motif_20+IAV_invivo_PB2_1_Motif_20],-0.104,-0.0714,-0.289,-0.462
GGUGGUAUUGUAGCUAUCGUAGUAACAUGCCUUGCC,0.0259,0.693,-0.0179,0.56
GUUUUUGUACACAAUUAAACCGUGCUUUAACUGGAAUAGCUGUUGAACAAGACAAAAAC [DMSMaPseq_invitro_SARS-CoV-2_Motif_424],-0.336,0.21,-0.127,0.247
AUACCACUUAUGUACAAAGGACUUCCUUGGAAUGUAGUGCGUAU,0.76,-0.207,-0.319,-0.527
UGGUAAUGCUGCUAUCAGCGAUUAUGACUACUAUCGUUAUAAUCUACCA,-0.119,-1.09,-0.385,-0.937

Sequence,pull-down binding Z-score [1],pull-down binding Z-score (TO-N3 (biotin conjugate)),pull-down binding Z-score [2],pull-down binding Z-score [3]
ACAACAGGAGUCACCUUUUGU [DMSMaPseq_invitro_SARS-CoV-2_Motif_108],-1.07,-1.15,-0.592,-0.879
ACAGAAUGCUGU,-1.19,-1.14,-0.472,-0.821
GCAGGAGCCUUAAAUAAGGCUACUAACAAUGC,-0.521,0.0366,-0.0703,0.214
GUUUACAACAGUAGAC,-1.28,-0.136,-0.155,0.0879
GGUUCGUGUCUUUAGCUAUAGAUGCUUACC,-0.066,0.913,0.206,0.877
GACAAUGUCUUAUCUACUUUUAUUUCAGCAGCUCGGCAAGGGUUUGUUGAUUCAGAUGUAGAAACUAAAGAUGUUGUU,-0.776,-0.599,-0.111,-0.56
GCGCUGCCAGAAACUGGCGGCGC [mismatch-UG],-0.856,0.624,-0.0108,0.983
GCUGUAGUGUUACUAAUCCUUAUGACAGC,-0.349,-0.197,-0.242,-0.113
GGUGUUGCAGGAGCCUUAAAUAAGGCUACUAACAAUGCC [SHAPE_invivo_SARS-CoV-2_Motif_68],-1.05,-0.882,-0.474,-0.697
GGUGUUGUUGGAGAAGGUUCCGAAGGUCUUAAUGACAACCUUCUUGAAAUACUCC,0.062,0.261,0.0401,0.245
AUUUGAACUCUACUAAUGUCACUAUUGCAACCUACUGUACUGGUUCUAUACCUUGUAGUGUUUGUCUUAGUGGUUUAGAU,-0.913,-1.06,-0.244,-0.873
CAGACAACACAUUUGUGUCUG,-1.8,-1.45,-0.67,-1.07
GGAGAUGAGGCGUUGCCUCCUCC [IAV_invivo_PA_3_Motif_24+IAV_invivo_PA_3_Motif_24],-0.275,-1.01,-0.663,-0.646
UCUUAAGAGAGGUGAUAAAAGUGUAUAUUACACUAGUAAUCCUACCACAUUCCACCUAGAUGGUGAAGUUAUCACCUUUGACAAUCUUAAGA,-0.559,0.528,-0.0579,0.836
GAACUCUACUAAUGUCACUAUUGCAACCUACUGUACUGGUUCUAUACCUUGUAGUGUUUGUCUUAGUGGUUUAGAUUC [DMSMaPseq_invitro_SARS-CoV-2_Motif_135],-0.471,-0.105,-0.164,0.03
GGACCAGGAACUAAUCAGACAAGGAACUGAUUACAAACAUUGGCC [DMSMaPseq_invitro_SARS-CoV-2_Motif_522],0.031,1.01,0.134,1.03
GUGAAGAAUCAU,-0.489,0.379,-0.146,0.637
